The supplement of paper PMC6755084

Tested on: F1*sub RNA substrate (template-directed ligation)
Experiment: fraction ligated after 30 min (ligated reads / total reads); higher = more ligase activity; sequences stand for … in GAGACCGCAACTGAAAAGTTGT…AGTTCTGCACGTAGAAGCAAAAGGC
Conditions: 42 °C
How it was run: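 Oligo-pool templates underwent PCR amplification, T7 transcription and gel purification to yield ribozyme variants. Gel-separated ligated and unligated bands were converted to complementary DNA with barcoded primers and sequenced on a MiSeq, keeping core bases of quality ≥20. The ratio of ligated reads to total reads gave the fraction ligated for every variant.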

Sequence | fraction ligated
TATCACTTTGTAAGACACTTGGATGGGTTGA [3d1472] | 0.802
TATCACTTTGTAAGACACTTTGATGGGTTGA [3d1473] | 0.793
TATCACTTTGTAAGACACTTTGGAGGGTTGA [3d1475] | 0.0352
TATCACTTTGTAAGACACTTTGGATGGGTTA [3d1477] | 0.776
TATCACTTTGTAAGACACTTTGGATGGGTTG [3d1478] | 0.82
TATCACTTTGTAAGACACTTTGGATGGGTTGA [2d147] | 0.838
TATCACTTTGTAAGACACTTTGGATGGTTGA [3d1476] | 0.119
TATCACTTTGTAAGACACTTTGGTGGGTTGA [3d1474] | 0.0671
TATCACTTTGTAAGACATTTGGATGGGTTGA [3d1471] | 0.837
TATCACTTTGTAAGACCTTTGGATGGGTTGA [3d1470] | 0.769
TATCACTTTGTAAGCACTTTGGATGGGTTGA [3d1468] | 0.783
TATCACTTTGTAGACACTTTGGATGGGTTGA [3d1466] | 0.843
TATCACTTTTAAGACACTTTGGATGGGTTGA [3d1464] | 0.768
TATCAGTCGTAAGACACTTTGGATGGGTTGA [3d1121] | 0.764
TATCATGCGTAAGACACTTTGGATGGGTTGA [3d1123] | 0.833
TATCATGTCGAAGACACTTTGGATGGGTTGA [3d1126] | 0.792
TATCATGTCGTAAACACTTTGGATGGGTTGA [3d1128] | 0.765
TATCATGTCGTAAGAACTTTGGATGGGTTGA [3d1130] | 0.848
TATCATGTCGTAAGACACTTGGATGGGTTGA [3d1133] | 0.776
TATCATGTCGTAAGACACTTTGATGGGTTGA [3d1134] | 0.816
TATCATGTCGTAAGACACTTTGGAGGGTTGA [3d1136] | 0.0722
TATCATGTCGTAAGACACTTTGGATGGGTTA [3d1138] | 0.641
TATCATGTCGTAAGACACTTTGGATGGGTTG [3d1139] | 0.784

Sequence | fraction ligated
TATCATGTCGTAAGACACTTTGGATGGGTTGA [2d109] | 0.792
TATCATGTCGTAAGACACTTTGGATGGTTGA [3d1137] | 0.268
TATCATGTCGTAAGACACTTTGGTGGGTTGA [3d1135] | 0.523
TATCATGTCGTAAGACATTTGGATGGGTTGA [3d1132] | 0.801
TATCATGTCGTAAGACCTTTGGATGGGTTGA [3d1131] | 0.778
TATCATGTCGTAAGCACTTTGGATGGGTTGA [3d1129] | 0.761
TATCATGTCGTAGACACTTTGGATGGGTTGA [3d1127] | 0.817
TATCATGTCTAAGACACTTTGGATGGGTTGA [3d1125] | 0.759
TATCATGTGTAAGACACTTTGGATGGGTTGA [3d1124] | 0.84
TATCATTCGTAAGACACTTTGGATGGGTTGA [3d1122] | 0.776
TATCATTGCGAAGACACTTTGGATGGGTTGA [3d1158] | 0.8
TATCATTGCGTAAACACTTTGGATGGGTTGA [3d1160] | 0.814
TATCATTGCGTAAGAACTTTGGATGGGTTGA [3d1162] | 0.837
TATCATTGCGTAAGACACTTGGATGGGTTGA [3d1165] | 0.773
TATCATTGCGTAAGACACTTTGATGGGTTGA [3d1166] | 0.681
TATCATTGCGTAAGACACTTTGGAGGGTTGA [3d1168] | 0.0323
TATCATTGCGTAAGACACTTTGGATGGGTTA [3d1170] | 0.447
TATCATTGCGTAAGACACTTTGGATGGGTTG [3d1171] | 0.815
TATCATTGCGTAAGACACTTTGGATGGGTTGA [2d111] | 0.819
TATCATTGCGTAAGACACTTTGGATGGTTGA [3d1169] | 0.0894
TATCATTGCGTAAGACACTTTGGTGGGTTGA [3d1167] | 0.0667
TATCATTGCGTAAGACATTTGGATGGGTTGA [3d1164] | 0.802
TATCATTGCGTAAGACCTTTGGATGGGTTGA [3d1163] | 0.815

Sequence | fraction ligated
TATCATTGCGTAAGCACTTTGGATGGGTTGA [3d1161] | 0.799
TATCATTGCGTAGACACTTTGGATGGGTTGA [3d1159] | 0.823
TATCATTGCTAAGACACTTTGGATGGGTTGA [3d1157] | 0.784
TATCATTGGTAAGACACTTTGGATGGGTTGA [3d1156] | 0.809
TATCATTGTCAAGACACTTTGGATGGGTTGA [3d1187] | 0.783
TATCATTGTCGAAACACTTTGGATGGGTTGA [3d1202] | 0.81
TATCATTGTCGAAGAACTTTGGATGGGTTGA [3d1204] | 0.809
TATCATTGTCGAAGACACTTGGATGGGTTGA [3d1207] | 0.771
TATCATTGTCGAAGACACTTTGATGGGTTGA [3d1208] | 0.772
TATCATTGTCGAAGACACTTTGGAGGGTTGA [3d1210] | 0.0625
TATCATTGTCGAAGACACTTTGGATGGGTTA [3d1212] | 0.475
TATCATTGTCGAAGACACTTTGGATGGGTTG [3d1213] | 0.796
TATCATTGTCGAAGACACTTTGGATGGGTTGA [2d114] | 0.798
TATCATTGTCGAAGACACTTTGGATGGTTGA [3d1211] | 0.21
TATCATTGTCGAAGACACTTTGGTGGGTTGA [3d1209] | 0.229
TATCATTGTCGAAGACATTTGGATGGGTTGA [3d1206] | 0.794
TATCATTGTCGAAGACCTTTGGATGGGTTGA [3d1205] | 0.768
TATCATTGTCGAAGCACTTTGGATGGGTTGA [3d1203] | 0.784
TATCATTGTCGAGACACTTTGGATGGGTTGA [3d1201] | 0.783
TATCATTGTCGTAAAACTTTGGATGGGTTGA [3d1227] | 0.787
TATCATTGTCGTAAACACTTGGATGGGTTGA [3d1230] | 0.778
TATCATTGTCGTAAACACTTTGATGGGTTGA [3d1231] | 0.597
TATCATTGTCGTAAACACTTTGGAGGGTTGA [3d1233] | 0.0387

Sequence | fraction ligated
TATCATTGTCGTAAACACTTTGGATGGGTTA [3d1235] | 0.472
TATCATTGTCGTAAACACTTTGGATGGGTTG [3d1236] | 0.809
TATCATTGTCGTAAACACTTTGGATGGTTGA [3d1234] | 0.0592
TATCATTGTCGTAAACACTTTGGTGGGTTGA [3d1232] | 0.0641
TATCATTGTCGTAAACATTTGGATGGGTTGA [3d1229] | 0.798
TATCATTGTCGTAAACCTTTGGATGGGTTGA [3d1228] | 0.79
TATCATTGTCGTAACACTTTGGATGGGTTGA [3d1215] | 0.815
TATCATTGTCGTAAGAACTTGGATGGGTTGA [3d1248] | 0.831
TATCATTGTCGTAAGAACTTTGATGGGTTGA [3d1249] | 0.545
TATCATTGTCGTAAGAACTTTGGAGGGTTGA [3d1251] | 0.0299
TATCATTGTCGTAAGAACTTTGGATGGGTTA [3d1253] | 0.623
TATCATTGTCGTAAGAACTTTGGATGGGTTG [3d1254] | 0.815
TATCATTGTCGTAAGAACTTTGGATGGTTGA [3d1252] | 0.0537
TATCATTGTCGTAAGAACTTTGGTGGGTTGA [3d1250] | 0.0672
TATCATTGTCGTAAGAATTTGGATGGGTTGA [3d1247] | 0.796
TATCATTGTCGTAAGACACTGGATGGGTTGA [3d1269] | 0.783
TATCATTGTCGTAAGACACTTGATGGGTTGA [3d1270] | 0.779
TATCATTGTCGTAAGACACTTGGAGGGTTGA [3d1272] | 0.183
TATCATTGTCGTAAGACACTTGGATGGGTTA [3d1274] | 0.728
TATCATTGTCGTAAGACACTTGGATGGGTTG [3d1275] | 0.8
TATCATTGTCGTAAGACACTTGGATGGTTGA [3d1273] | 0.395
TATCATTGTCGTAAGACACTTGGTGGGTTGA [3d1271] | 0.482
TATCATTGTCGTAAGACACTTTATGGGTTGA [3d1276] | 0.0281

Sequence | fraction ligated
TATCATTGTCGTAAGACACTTTGAGGGTTGA [3d1278] | 0.00985
TATCATTGTCGTAAGACACTTTGATGGGTTA [3d1280] | 0.158
TATCATTGTCGTAAGACACTTTGATGGGTTG [3d1281] | 0.765
TATCATTGTCGTAAGACACTTTGATGGTTGA [3d1279] | 0.027
TATCATTGTCGTAAGACACTTTGGAGGGTTA [3d1287] | 0.0162
TATCATTGTCGTAAGACACTTTGGAGGGTTG [3d1288] | 0.0338
TATCATTGTCGTAAGACACTTTGGAGGTTGA [3d1286] | 0.0106
TATCATTGTCGTAAGACACTTTGGATGGGTT [3d1291] | 0.0919
TATCATTGTCGTAAGACACTTTGGATGGGTTA [2d126] | 0.67
TATCATTGTCGTAAGACACTTTGGATGGGTTG [2d127] | 0.784
TATCATTGTCGTAAGACACTTTGGATGGGTTGA [1d6] | 0.796
TATCATTGTCGTAAGACACTTTGGATGGTTA [3d1289] | 0.203
TATCATTGTCGTAAGACACTTTGGATGGTTG [3d1290] | 0.299
TATCATTGTCGTAAGACACTTTGGATGGTTGA [2d125] | 0.456
TATCATTGTCGTAAGACACTTTGGGGGTTGA [3d1282] | 0.0386
TATCATTGTCGTAAGACACTTTGGTGGGTTA [3d1284] | 0.0335
TATCATTGTCGTAAGACACTTTGGTGGGTTG [3d1285] | 0.247
TATCATTGTCGTAAGACACTTTGGTGGTTGA [3d1283] | 0.0252
TATCATTGTCGTAAGACACTTTGTGGGTTGA [3d1277] | 0.0371
